From the supplement of paper PMC9112550, “Optimization of the antimicrobial peptide Bac7 by deep mutational scanning” (BMC Biology, 2022) come the findings set out here.

The test system of this data set is Escherichia coli TOP10. Briefly: shrunken log2 fold change of peptide-encoding DNA abundance (4.5 h post-induction vs induction); higher = less antimicrobial activity (less host growth inhibition). As to conditions: time post-induction: 4.5 h; library: site-saturation at positions 5, 18, 19, 20.
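Note: peptides expressed intracellularly from a pBAD plasmid library in pooled LB shake-flask culture, induced with 0.3% L-arabinose, DNA abundance read by NGS, three biological replicates, DESeq2 with apeglm shrinkage.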

With RRIRGRPPRLPRPRPRPTTDPRP, the “shrunken log2 fold change” value came to 0.918.
For RRIRHRPPRLPRPRPRPYFHPRP, the “shrunken log2 fold change” value is -0.955.
Take RRIRNRPPRLPRPRPRPKTHPRP: the “shrunken log2 fold change” value was -0.298.
On to RRIRLRPPRLPRPRPRPSDHPRP, for which the “shrunken log2 fold change” value was -0.293.
Then RRIRTRPPRLPRPRPRPEEHPRP, with 0.0062; and RRIRARPPRLPRPRPRPLEYPRP, with -0.498.
In the case of RRIRRRPPRLPRPRPRPINEPRP, the “shrunken log2 fold change” value was -0.0486.
As to RRIRMRPPRLPRPRPRPSEEPRP, the “shrunken log2 fold change” value stood at 0.0287.
As for RRIRSRPPRLPRPRPRPLSSPRP, the “shrunken log2 fold change” value was -0.329.
Then RRIRVRPPRLPRPRPRPFFMPRP, with -0.339.
As for RRIRQRPPRLPRPRPRPHHMPRP, the “shrunken log2 fold change” value was -0.256.
Take RRIRMRPPRLPRPRPRPCCHPRP: the “shrunken log2 fold change” value turned out to be 0.0146.
As for RRIRIRPPRLPRPRPRPRFMPRP, the “shrunken log2 fold change” value is -0.143.
As for RRIRQRPPRLPRPRPRPCRQPRP, the “shrunken log2 fold change” value came to 0.0342.
Regarding RRIRPRPPRLPRPRPRPLAAPRP, the “shrunken log2 fold change” value was determined as 0.767.
The result for RRIRNRPPRLPRPRPRPYKMPRP reads -0.0115; that for RRIRTRPPRLPRPRPRPISFPRP, -0.199.
For the sequence RRIRDRPPRLPRPRPRPENRPRP, the “shrunken log2 fold change” value was -0.0191.
Consider RRIRERPPRLPRPRPRPCHVPRP, for which the “shrunken log2 fold change” value was -0.0775.
For the sequence RRIRLRPPRLPRPRPRPCIQPRP, the “shrunken log2 fold change” value is -0.675.
Turning to RRIRPRPPRLPRPRPRPNASPRP, the “shrunken log2 fold change” value turned out to be 0.0199.
As for RRIRMRPPRLPRPRPRPYANPRP, the “shrunken log2 fold change” value was -0.139.
RRIRQRPPRLPRPRPRPRDTPRP: the “shrunken log2 fold change” value is 0.0606.
For the sequence RRIRWRPPRLPRPRPRPKKNPRP, the “shrunken log2 fold change” value stood at 0.341.
For the sequence RRIRNRPPRLPRPRPRPGKDPRP, the “shrunken log2 fold change” value was -0.0565.
For RRIRRRPPRLPRPRPRPFCWPRP, the “shrunken log2 fold change” value is 0.45.
For the sequence RRIRDRPPRLPRPRPRPWICPRP, the “shrunken log2 fold change” value is -0.298.
The result for RRIRERPPRLPRPRPRPGQQPRP reads -0.0809; that for RRIRLRPPRLPRPRPRPLIVPRP, -0.131; that for RRIRQRPPRLPRPRPRPAFYPRP, -0.0263.
In the case of RRIRGRPPRLPRPRPRPKSQPRP, the “shrunken log2 fold change” value was 0.556.
RRIRWRPPRLPRPRPRPEIQPRP: the “shrunken log2 fold change” value is 0.685.
The result for RRIRDRPPRLPRPRPRPHHIPRP reads -0.361.
The result for RRIRFRPPRLPRPRPRPLAYPRP reads -0.534; that for RRIRPRPPRLPRPRPRPSRIPRP, -0.0841.
Consider RRIRNRPPRLPRPRPRPYHYPRP, for which the “shrunken log2 fold change” value is -0.722.
The result for RRIRDRPPRLPRPRPRPYDKPRP reads -0.149.
In the case of RRIRERPPRLPRPRPRPVKAPRP, the “shrunken log2 fold change” value was -0.0316.
The result for RRIRVRPPRLPRPRPRPSMPPRP reads -0.343; that for RRIRMRPPRLPRPRPRPETHPRP, 2.51; that for RRIRERPPRLPRPRPRPMRCPRP, 0.0239.
Take RRIRWRPPRLPRPRPRPVYAPRP: the “shrunken log2 fold change” value was determined as 0.31.
On to RRIRQRPPRLPRPRPRPQHNPRP, for which the “shrunken log2 fold change” value is -0.786.
Then RRIRTRPPRLPRPRPRPPKDPRP, with -0.187.
Take RRIRKRPPRLPRPRPRPMTSPRP: the “shrunken log2 fold change” value was determined as 0.0716.
Then RRIRTRPPRLPRPRPRPRNRPRP, with -0.0827; and RRIRSRPPRLPRPRPRPNLMPRP, with -0.177.
As for RRIRFRPPRLPRPRPRPMAGPRP, the “shrunken log2 fold change” value is -0.111.
On to RRIRDRPPRLPRPRPRPGSMPRP, for which the “shrunken log2 fold change” value was -0.403.
Then RRIRPRPPRLPRPRPRPGSCPRP, with 0.111; and RRIRYRPPRLPRPRPRPYLLPRP, with -1.28.
On to RRIRLRPPRLPRPRPRPTRPPRP, for which the “shrunken log2 fold change” value worked out at 0.828.
In the case of RRIRNRPPRLPRPRPRPLLSPRP, the “shrunken log2 fold change” value was 0.1.
Regarding RRIRWRPPRLPRPRPRPHNPPRP, the “shrunken log2 fold change” value is -0.115.
For RRIRCRPPRLPRPRPRPKRYPRP, the “shrunken log2 fold change” value was -0.0053.
Then RRIRHRPPRLPRPRPRPEFFPRP, with 0.0155; and RRIRKRPPRLPRPRPRPAGHPRP, with 0.0606.
The result for RRIRERPPRLPRPRPRPDPDPRP reads -0.0294; that for RRIRRRPPRLPRPRPRPRLLPRP, 0.474; that for RRIRMRPPRLPRPRPRPVYQPRP, -0.372.
Take RRIRSRPPRLPRPRPRPRLPPRP: the “shrunken log2 fold change” value was 0.315.
For RRIRCRPPRLPRPRPRPDDFPRP, the “shrunken log2 fold change” value is 0.0333.
As to RRIRYRPPRLPRPRPRPWFWPRP, the “shrunken log2 fold change” value is -0.0261.
RRIRCRPPRLPRPRPRPAKWPRP: the “shrunken log2 fold change” value is 0.235.
For the sequence RRIRMRPPRLPRPRPRPKENPRP, the “shrunken log2 fold change” value came to 1.9.
Consider RRIRLRPPRLPRPRPRPGEFPRP, for which the “shrunken log2 fold change” value came out at 2.05.
As to RRIRRRPPRLPRPRPRPRAPPRP, the “shrunken log2 fold change” value was determined as 1.02.
Regarding RRIRTRPPRLPRPRPRPLWLPRP, the “shrunken log2 fold change” value stood at 0.165.
RRIRCRPPRLPRPRPRPMPAPRP: the “shrunken log2 fold change” value turned out to be 0.849.
On to RRIRLRPPRLPRPRPRPHAGPRP, for which the “shrunken log2 fold change” value turned out to be 0.168.
For RRIRMRPPRLPRPRPRPFGEPRP, the “shrunken log2 fold change” value stood at 0.0461.
In the case of RRIRARPPRLPRPRPRPFETPRP, the “shrunken log2 fold change” value is 0.0585.
The result for RRIRGRPPRLPRPRPRPWLQPRP reads 0.201; that for RRIRIRPPRLPRPRPRPQADPRP, -0.0941.
As for RRIRTRPPRLPRPRPRPQNAPRP, the “shrunken log2 fold change” value was -0.12.
RRIRPRPPRLPRPRPRPYYDPRP: the “shrunken log2 fold change” value was -0.745.
Consider RRIRMRPPRLPRPRPRPFMMPRP, for which the “shrunken log2 fold change” value is -0.113.
For the sequence RRIRRRPPRLPRPRPRPKIQPRP, the “shrunken log2 fold change” value stood at 0.0197.
Regarding RRIRPRPPRLPRPRPRPRSAPRP, the “shrunken log2 fold change” value was 0.497.
For RRIRVRPPRLPRPRPRPYVCPRP, the “shrunken log2 fold change” value is -0.525.
Consider RRIRHRPPRLPRPRPRPGPKPRP, for which the “shrunken log2 fold change” value was -0.0906.
The result for RRIRHRPPRLPRPRPRPYFYPRP reads -0.881; that for RRIRLRPPRLPRPRPRPMYMPRP, -0.295.
Turning to RRIRQRPPRLPRPRPRPQSQPRP, the “shrunken log2 fold change” value is -0.159.
The result for RRIRARPPRLPRPRPRPSIVPRP reads -0.103; that for RRIRQRPPRLPRPRPRPTVTPRP, -0.47; that for RRIRLRPPRLPRPRPRPCITPRP, -0.275.
In the case of RRIRQRPPRLPRPRPRPAMQPRP, the “shrunken log2 fold change” value worked out at 0.109.
The result for RRIRQRPPRLPRPRPRPPITPRP reads -0.0813; that for RRIRQRPPRLPRPRPRPHRLPRP, -0.0506; that for RRIRARPPRLPRPRPRPWKSPRP, -0.00111.
Take RRIRKRPPRLPRPRPRPPHQPRP: the “shrunken log2 fold change” value was 0.61.
For the sequence RRIRQRPPRLPRPRPRPGPQPRP, the “shrunken log2 fold change” value is 0.722.
Then RRIRPRPPRLPRPRPRPCMDPRP, with -0.561; and RRIRWRPPRLPRPRPRPLNAPRP, with 0.438; and RRIRQRPPRLPRPRPRPHWAPRP, with -0.143.
For RRIRKRPPRLPRPRPRPLQAPRP, the “shrunken log2 fold change” value amounted to 1.34.
Take RRIRERPPRLPRPRPRPMRAPRP: the “shrunken log2 fold change” value is 0.763.
RRIRKRPPRLPRPRPRPLEQPRP: the “shrunken log2 fold change” value was found to be 0.0352.
In the case of RRIRSRPPRLPRPRPRPDETPRP, the “shrunken log2 fold change” value was -0.0257.
Regarding RRIRLRPPRLPRPRPRPNDIPRP, the “shrunken log2 fold change” value is -0.723.
Take RRIRPRPPRLPRPRPRPYHAPRP: the “shrunken log2 fold change” value is -0.19.
RRIRIRPPRLPRPRPRPWKMPRP: the “shrunken log2 fold change” value was -1.13.
Turning to RRIRNRPPRLPRPRPRPMQYPRP, the “shrunken log2 fold change” value is -0.267.
With RRIRSRPPRLPRPRPRPKKSPRP, the “shrunken log2 fold change” value is -0.0117.
Take RRIRTRPPRLPRPRPRPLSDPRP: the “shrunken log2 fold change” value was -0.029.
The result for RRIRVRPPRLPRPRPRPGYWPRP reads 0.0156.
As for RRIRGRPPRLPRPRPRPKLAPRP, the “shrunken log2 fold change” value was 1.67.
As to RRIRTRPPRLPRPRPRPCQVPRP, the “shrunken log2 fold change” value was -0.304.
The result for RRIRPRPPRLPRPRPRPTMHPRP reads 0.0766; that for RRIRNRPPRLPRPRPRPIDSPRP, -0.0173; that for RRIRIRPPRLPRPRPRPVLMPRP, -0.229.
Turning to RRIRKRPPRLPRPRPRPNDNPRP, the “shrunken log2 fold change” value is -0.076.
The result for RRIRRRPPRLPRPRPRPYGVPRP reads 0.037.
Regarding RRIRSRPPRLPRPRPRPSGEPRP, the “shrunken log2 fold change” value came out at 0.406.
For RRIRMRPPRLPRPRPRPYVPPRP, the “shrunken log2 fold change” value is -0.584.
Regarding RRIRFRPPRLPRPRPRPCRPPRP, the “shrunken log2 fold change” value came out at 0.0632.
For RRIRSRPPRLPRPRPRPVECPRP, the “shrunken log2 fold change” value is -0.0425.
RRIRLRPPRLPRPRPRPVNKPRP: the “shrunken log2 fold change” value was -0.14.
In the case of RRIRHRPPRLPRPRPRPMNDPRP, the “shrunken log2 fold change” value is -0.108.
Then RRIRYRPPRLPRPRPRPMFLPRP, with -0.377; and RRIRRRPPRLPRPRPRPLDTPRP, with 0.168; and RRIRQRPPRLPRPRPRPEFYPRP, with -0.0478.
Regarding RRIRKRPPRLPRPRPRPFCHPRP, the “shrunken log2 fold change” value came out at 0.00474.
Then RRIRTRPPRLPRPRPRPVVGPRP, with 0.626.
